Our source for the Kd values is paper PMC11931385, “Structural and functional analysis of cancer-associated missense variants in the retinoblastoma protein pocket domain” (The Journal of Biological Chemistry, 2025).

No end group written: not given here. TMR = tetramethyl rhodamine dye

Common to all, as to test: fluorescence polarisation; 37 °C, after the 25 °C reading ramped over 7 min to 37 °C and 2 min incubation; unlabeled Rb^P against 1.5 nM TMR-E2F1^TD or 7.5 nM TMR-E7^LxCxE; 25 mM Tris pH 8.0, 200 mM NaCl, 1 mM DTT, 0.1% Tween-20; apparent Kd
What all share (conditions): both partners purified

One experiment addresses T1, Rb^P L572I (human, UniProt P06400 380-788, L572I).
T1 construct: also called variant 31
T1 sequence (looked up): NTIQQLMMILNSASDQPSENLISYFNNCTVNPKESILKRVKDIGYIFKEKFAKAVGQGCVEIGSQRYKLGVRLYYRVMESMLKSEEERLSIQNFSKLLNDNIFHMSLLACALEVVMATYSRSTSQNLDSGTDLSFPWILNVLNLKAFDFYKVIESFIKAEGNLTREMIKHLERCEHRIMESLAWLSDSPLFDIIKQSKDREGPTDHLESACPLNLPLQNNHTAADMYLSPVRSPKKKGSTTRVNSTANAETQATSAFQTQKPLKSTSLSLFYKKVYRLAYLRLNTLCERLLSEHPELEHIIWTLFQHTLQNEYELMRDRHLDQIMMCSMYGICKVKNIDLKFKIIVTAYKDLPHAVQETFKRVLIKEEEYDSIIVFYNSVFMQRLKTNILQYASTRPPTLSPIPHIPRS

The target in the next experiment is T2, Rb^P R741C (human, UniProt P06400 380-788, R741C).
T2 construct: also called variant 68
T2 sequence (looked up): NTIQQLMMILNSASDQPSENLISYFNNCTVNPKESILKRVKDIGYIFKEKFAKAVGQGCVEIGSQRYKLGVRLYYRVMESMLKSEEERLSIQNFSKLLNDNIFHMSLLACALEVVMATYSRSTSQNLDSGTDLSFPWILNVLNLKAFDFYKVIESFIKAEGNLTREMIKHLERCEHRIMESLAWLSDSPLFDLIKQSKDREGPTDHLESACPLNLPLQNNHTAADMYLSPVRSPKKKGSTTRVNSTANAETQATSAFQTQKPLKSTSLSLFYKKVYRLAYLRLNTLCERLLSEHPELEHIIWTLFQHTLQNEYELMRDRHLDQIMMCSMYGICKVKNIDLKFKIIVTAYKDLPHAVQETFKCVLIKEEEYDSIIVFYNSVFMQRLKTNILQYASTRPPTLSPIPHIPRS

Another experiment deals with T3, Rb^P H699P (human, UniProt P06400 380-788, H699P).
T3 construct: also called variant 63
T3 sequence (looked up): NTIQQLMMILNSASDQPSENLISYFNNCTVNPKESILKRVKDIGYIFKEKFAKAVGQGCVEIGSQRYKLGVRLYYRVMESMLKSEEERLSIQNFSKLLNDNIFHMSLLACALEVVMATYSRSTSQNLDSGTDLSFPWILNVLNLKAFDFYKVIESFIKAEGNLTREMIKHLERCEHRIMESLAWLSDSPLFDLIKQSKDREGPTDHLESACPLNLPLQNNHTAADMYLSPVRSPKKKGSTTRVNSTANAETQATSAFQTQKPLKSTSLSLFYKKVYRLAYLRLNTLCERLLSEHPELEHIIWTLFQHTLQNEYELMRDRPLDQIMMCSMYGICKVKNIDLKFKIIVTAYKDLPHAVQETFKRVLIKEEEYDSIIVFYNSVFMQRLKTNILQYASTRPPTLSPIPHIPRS

A further experiment deals with T4, Rb^P S588F (human, UniProt P06400 380-788, S588F).
T4 construct: also called variant 34
T4 sequence (looked up): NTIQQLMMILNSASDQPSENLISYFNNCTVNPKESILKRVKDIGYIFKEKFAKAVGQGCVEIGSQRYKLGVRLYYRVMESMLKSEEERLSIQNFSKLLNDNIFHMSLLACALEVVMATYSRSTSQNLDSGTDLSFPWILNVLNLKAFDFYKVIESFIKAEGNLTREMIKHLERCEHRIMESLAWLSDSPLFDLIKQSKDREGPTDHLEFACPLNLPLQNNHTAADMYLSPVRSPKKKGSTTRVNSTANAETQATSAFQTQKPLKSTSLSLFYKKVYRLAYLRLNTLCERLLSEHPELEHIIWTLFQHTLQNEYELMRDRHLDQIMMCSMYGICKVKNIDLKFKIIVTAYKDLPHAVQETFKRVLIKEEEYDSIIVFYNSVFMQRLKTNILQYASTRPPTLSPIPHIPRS

The next experiment deals with T5, Rb^P H555Y (human, UniProt P06400 380-788, H555Y).
T5 construct: also called variant 29
T5 sequence (looked up): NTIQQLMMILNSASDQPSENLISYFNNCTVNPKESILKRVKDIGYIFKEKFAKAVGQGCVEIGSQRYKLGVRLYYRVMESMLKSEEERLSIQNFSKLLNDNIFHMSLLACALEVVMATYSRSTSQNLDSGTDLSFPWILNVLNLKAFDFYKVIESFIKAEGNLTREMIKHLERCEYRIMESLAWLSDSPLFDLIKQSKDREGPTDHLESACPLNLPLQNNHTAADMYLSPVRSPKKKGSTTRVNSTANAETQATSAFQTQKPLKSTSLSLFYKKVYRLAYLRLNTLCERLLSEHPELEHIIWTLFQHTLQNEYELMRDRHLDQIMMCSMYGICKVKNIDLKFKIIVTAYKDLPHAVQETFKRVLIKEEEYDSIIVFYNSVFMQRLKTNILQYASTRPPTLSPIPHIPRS

B1: TMR-E2F1^TD, peptide of the E2F1 transactivation domain (peptide)
peptide: {TMR}-GEGIRDLFDCDFGDLTPLD
notes: also called E2F^TD; source: synthetic peptide, bought: GenScript
For B1, the Kd in the experiment with Rb^P L572I was found to be 87 nM; with Rb^P R741C, 64 nM; with Rb^P H699P, 68 nM; with Rb^P S588F, 51 nM; in the experiment with Rb^P H555Y, 366 nM.

B2: TMR-E7^LxCxE, LxCxE peptide of the E7 oncoprotein from HPV (peptide)
peptide: DLYCYEQLN
modifications: also: TMR label, position not given here
notes: source: synthetic peptide, bought: GenScript
As to B2, the Kd with Rb^P L572I was found to be 15 nM; in the experiment with Rb^P R741C it was 23 nM; in the experiment with Rb^P H699P it was 14 nM; with Rb^P S588F, 16 nM; with Rb^P H555Y, 32 nM.
